From patent US20040071694A1

Molecular target: biotinylated EpoR (Abbott CHO cell derived ref.# RB69084:4) (UniProt P19235)
Assay: immunofluorescence microscopy on EpoR-coated sheep red blood cells

Chain of biotinylated EpoR (Abbott CHO cell derived ref.# RB69084:4) (P19235 25-250 limits assumed): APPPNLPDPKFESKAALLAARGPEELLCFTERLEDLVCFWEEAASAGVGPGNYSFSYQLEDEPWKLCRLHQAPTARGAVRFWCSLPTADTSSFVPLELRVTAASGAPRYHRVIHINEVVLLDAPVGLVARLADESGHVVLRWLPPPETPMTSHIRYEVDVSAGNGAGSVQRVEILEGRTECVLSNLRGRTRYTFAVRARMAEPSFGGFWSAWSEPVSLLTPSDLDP

## murine antiEpoR antibody (R&D Systems Cat.# MAB307)
  immunofluorescence score (arbitrary scale of 0-4) (score out of 4): 4
